Biological target: the molecule itself
Assay: SEC; Superdex 200 GL, 50 mM phosphate buffer pH 7.8, 1 ml/min; native mass estimated from a calibration curve of standard proteins (29-669 kDa)

B1: NobA, SAM-dependent fluorinase (5'-fluoro-5'-deoxyadenosine synthase) from Nocardia brasiliensis ATCC 700358 (enzyme, UniProt W8JNL4 1-300, looked up)
chain: MTTTNGRRPIIAFMSDLGITDDSVAQCKGLMLSVCPDVTIVDICHTMQPWDVEEGARYIVDLPRLFPEGTVFATTTYPATGTTARSVALRIAHASKGGARGQWAGSGAGFERKEGSYIYIAPNNGLLTTVIKEHGYLEAYEVSSPEVIPEQPEPTFYSREMVALPSAHLAAGFPLEKVGRRLADDEIVRFERKDPELVADHDLVGYVTNIDHPFGNVWTNIHRTDLEKLGVGYGTKLRITLDGVLPFELPLSPTFADAGEIGAAVAYLSSRGYLALARNAASLAYPYNLKAGISVQVKVG
notes: NobA, fluorinase of Nocardia brasiliensis ATCC 700358 (HUJEG-1); NdeI-HindIII fragment in pET28a; no removal of the His tag is described; also called 5'-FDA synthase; source: E. coli BL21 (DE3), purified (Ni-NTA, dialysis)
B1 was tested, and the “stoichiometry N” value was 6.
